Laboratory results from patent EP2322204A1.

Biological target: LRP1 receptor on human astrocytoma 1321N1 cells (human) (UniProt Q07954)
Experiment: cell-based or functional assay

Chain of UniProt Q07954 (Q07954 20-4544): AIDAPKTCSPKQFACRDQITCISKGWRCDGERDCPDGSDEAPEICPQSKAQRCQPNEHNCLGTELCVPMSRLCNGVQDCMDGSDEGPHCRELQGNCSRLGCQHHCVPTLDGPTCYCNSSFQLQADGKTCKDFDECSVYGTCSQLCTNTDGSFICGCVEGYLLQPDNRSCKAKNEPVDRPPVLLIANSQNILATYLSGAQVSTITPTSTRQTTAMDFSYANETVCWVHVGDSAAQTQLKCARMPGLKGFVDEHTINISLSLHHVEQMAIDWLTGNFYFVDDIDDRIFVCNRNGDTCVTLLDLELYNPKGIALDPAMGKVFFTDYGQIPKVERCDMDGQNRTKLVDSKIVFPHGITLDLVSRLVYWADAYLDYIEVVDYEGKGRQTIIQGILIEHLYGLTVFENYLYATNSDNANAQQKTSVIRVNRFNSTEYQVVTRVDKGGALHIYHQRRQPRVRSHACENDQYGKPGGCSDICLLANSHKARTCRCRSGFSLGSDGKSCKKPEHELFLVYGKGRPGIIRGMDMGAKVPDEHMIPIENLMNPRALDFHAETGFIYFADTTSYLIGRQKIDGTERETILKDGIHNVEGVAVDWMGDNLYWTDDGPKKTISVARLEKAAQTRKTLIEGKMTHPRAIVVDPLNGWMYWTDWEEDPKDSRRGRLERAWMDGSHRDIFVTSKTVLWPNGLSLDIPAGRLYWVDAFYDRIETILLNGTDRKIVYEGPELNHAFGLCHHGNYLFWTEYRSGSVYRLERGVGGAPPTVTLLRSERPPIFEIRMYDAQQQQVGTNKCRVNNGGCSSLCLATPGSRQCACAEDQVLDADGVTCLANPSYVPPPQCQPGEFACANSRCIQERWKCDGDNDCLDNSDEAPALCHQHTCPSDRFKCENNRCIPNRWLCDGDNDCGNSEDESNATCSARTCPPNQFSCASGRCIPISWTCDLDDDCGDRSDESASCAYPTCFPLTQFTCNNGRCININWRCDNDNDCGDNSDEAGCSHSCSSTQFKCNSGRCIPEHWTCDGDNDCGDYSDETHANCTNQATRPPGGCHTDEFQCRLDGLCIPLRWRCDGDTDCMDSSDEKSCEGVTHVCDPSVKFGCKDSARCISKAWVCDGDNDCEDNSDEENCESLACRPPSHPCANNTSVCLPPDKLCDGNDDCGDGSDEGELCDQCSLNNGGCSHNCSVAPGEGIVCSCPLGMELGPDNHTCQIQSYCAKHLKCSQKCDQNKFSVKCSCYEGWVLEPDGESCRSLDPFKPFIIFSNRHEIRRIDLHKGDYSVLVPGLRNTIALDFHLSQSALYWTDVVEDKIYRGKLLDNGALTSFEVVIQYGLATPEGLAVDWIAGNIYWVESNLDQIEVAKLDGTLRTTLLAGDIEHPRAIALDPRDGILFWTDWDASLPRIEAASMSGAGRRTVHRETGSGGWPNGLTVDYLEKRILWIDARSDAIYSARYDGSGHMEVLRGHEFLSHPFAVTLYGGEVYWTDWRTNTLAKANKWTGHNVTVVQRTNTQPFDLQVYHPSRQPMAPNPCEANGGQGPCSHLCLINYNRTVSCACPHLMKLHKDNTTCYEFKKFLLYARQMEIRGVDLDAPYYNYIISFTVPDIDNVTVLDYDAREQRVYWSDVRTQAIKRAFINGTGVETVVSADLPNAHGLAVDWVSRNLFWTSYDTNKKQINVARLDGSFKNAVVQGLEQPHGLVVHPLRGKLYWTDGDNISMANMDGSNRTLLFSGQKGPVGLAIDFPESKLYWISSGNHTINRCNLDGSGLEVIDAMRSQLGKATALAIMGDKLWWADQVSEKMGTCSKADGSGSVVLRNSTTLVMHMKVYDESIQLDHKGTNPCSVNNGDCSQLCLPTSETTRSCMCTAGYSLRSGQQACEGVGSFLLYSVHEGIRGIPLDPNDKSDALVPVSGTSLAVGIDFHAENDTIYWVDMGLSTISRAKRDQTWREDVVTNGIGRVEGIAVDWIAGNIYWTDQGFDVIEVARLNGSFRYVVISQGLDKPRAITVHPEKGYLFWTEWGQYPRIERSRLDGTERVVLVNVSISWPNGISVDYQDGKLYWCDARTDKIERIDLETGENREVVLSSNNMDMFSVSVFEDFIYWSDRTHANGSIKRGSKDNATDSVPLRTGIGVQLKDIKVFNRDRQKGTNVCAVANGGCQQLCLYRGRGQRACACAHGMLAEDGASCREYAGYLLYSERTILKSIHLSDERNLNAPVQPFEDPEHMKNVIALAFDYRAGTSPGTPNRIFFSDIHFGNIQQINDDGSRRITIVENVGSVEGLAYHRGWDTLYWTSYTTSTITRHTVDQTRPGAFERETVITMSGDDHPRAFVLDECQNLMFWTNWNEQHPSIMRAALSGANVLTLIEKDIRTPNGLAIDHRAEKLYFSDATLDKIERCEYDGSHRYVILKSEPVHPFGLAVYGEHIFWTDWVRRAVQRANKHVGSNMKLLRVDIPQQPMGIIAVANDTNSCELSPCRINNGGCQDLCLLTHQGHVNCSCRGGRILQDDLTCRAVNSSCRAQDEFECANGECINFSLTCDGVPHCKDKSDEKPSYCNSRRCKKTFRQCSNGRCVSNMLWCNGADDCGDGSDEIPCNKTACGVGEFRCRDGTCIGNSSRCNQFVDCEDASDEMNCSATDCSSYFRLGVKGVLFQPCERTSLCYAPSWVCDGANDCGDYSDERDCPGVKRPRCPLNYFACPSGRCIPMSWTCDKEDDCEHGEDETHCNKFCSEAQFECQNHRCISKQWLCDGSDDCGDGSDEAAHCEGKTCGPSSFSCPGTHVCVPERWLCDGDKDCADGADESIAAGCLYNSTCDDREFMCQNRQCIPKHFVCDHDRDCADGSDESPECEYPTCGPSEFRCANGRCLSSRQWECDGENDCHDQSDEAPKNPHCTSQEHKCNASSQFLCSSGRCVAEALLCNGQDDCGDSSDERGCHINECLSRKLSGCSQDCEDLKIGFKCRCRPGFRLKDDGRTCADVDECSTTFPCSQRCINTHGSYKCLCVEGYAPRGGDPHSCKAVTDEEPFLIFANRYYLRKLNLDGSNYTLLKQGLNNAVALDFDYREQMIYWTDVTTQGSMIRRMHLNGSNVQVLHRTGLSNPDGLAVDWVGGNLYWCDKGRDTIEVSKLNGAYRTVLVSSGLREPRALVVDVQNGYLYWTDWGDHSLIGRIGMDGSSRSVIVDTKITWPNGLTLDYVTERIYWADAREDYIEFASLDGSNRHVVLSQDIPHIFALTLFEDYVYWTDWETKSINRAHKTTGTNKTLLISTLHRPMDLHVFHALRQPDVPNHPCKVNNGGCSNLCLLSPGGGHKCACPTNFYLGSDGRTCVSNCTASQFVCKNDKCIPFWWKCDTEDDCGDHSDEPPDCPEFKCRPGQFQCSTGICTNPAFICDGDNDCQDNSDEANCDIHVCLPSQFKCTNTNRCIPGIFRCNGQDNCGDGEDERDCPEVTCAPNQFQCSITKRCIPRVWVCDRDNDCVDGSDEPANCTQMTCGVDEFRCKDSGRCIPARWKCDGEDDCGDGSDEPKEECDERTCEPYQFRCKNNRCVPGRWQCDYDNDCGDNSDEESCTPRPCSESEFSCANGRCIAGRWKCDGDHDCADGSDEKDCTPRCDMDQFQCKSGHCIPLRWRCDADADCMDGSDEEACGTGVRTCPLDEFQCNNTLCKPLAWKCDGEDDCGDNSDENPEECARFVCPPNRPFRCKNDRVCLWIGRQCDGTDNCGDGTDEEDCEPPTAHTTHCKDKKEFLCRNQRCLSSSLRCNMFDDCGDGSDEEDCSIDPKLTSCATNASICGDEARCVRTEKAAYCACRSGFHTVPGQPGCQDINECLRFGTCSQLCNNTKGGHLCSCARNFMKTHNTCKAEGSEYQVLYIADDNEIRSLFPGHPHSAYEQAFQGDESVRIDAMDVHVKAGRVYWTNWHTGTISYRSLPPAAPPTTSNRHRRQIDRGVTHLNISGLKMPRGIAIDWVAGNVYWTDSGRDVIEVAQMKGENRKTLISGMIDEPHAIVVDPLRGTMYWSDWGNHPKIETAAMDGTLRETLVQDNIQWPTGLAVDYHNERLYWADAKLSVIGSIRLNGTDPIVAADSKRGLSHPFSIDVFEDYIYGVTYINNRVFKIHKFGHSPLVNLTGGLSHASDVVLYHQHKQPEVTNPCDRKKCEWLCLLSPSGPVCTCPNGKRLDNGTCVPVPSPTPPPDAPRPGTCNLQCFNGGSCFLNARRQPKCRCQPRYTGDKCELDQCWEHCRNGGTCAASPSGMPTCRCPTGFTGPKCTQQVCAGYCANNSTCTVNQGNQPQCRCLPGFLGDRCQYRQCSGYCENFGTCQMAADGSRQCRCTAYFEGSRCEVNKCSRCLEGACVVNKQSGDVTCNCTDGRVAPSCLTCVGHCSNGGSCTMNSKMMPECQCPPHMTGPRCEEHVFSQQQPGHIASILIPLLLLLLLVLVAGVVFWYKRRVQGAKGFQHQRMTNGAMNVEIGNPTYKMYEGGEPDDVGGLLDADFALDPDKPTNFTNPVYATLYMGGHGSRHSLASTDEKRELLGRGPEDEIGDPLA

methylamine-transformed A2M* (activated alpha-2-macroglobulin) (from UniProt P01023 24-1474) (ligand)
decrease in colony formation in soft agar (anchorage-independent growth), 1321N1 cells: > 50%
